The source of these data is publication PMC11420629 (2024).

This assay concerns the target T1, GluR1 carboxy‐terminal region (SPR).
T1 chain: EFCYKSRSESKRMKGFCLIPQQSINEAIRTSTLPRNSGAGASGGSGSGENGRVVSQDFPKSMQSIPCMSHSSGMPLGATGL
The assay can be described thus: SPR.

B1: full‐length CIRP protein (SPR) (natural protein)
chain: MASDEGKLFVGGLSFDTNEQALEQVFSKYGQISEVVVVKDRETQRSRGFGFVTFENIDDAKDAMMAMNGKSVDGRQIRVDQAGKSSDNRSRGYRGGSAGGRGFFRGGRSRGRGFSRGGGDRGYGGGRFESRSGGYGGSRDYYASRSQGGSYGYRSSGGSYRDSYDSYATHNE
B1: the Kd was 1010 nM.
